Experimental data reported in patent publication US20050233313.

System: β-galactosidase substrate with a cleavage cassette (decapeptide corresponding to an HIV protease cleavage site) inserted into its open reading frame [β-galactosidase: P00722]
Sequence (P00722 2-1024): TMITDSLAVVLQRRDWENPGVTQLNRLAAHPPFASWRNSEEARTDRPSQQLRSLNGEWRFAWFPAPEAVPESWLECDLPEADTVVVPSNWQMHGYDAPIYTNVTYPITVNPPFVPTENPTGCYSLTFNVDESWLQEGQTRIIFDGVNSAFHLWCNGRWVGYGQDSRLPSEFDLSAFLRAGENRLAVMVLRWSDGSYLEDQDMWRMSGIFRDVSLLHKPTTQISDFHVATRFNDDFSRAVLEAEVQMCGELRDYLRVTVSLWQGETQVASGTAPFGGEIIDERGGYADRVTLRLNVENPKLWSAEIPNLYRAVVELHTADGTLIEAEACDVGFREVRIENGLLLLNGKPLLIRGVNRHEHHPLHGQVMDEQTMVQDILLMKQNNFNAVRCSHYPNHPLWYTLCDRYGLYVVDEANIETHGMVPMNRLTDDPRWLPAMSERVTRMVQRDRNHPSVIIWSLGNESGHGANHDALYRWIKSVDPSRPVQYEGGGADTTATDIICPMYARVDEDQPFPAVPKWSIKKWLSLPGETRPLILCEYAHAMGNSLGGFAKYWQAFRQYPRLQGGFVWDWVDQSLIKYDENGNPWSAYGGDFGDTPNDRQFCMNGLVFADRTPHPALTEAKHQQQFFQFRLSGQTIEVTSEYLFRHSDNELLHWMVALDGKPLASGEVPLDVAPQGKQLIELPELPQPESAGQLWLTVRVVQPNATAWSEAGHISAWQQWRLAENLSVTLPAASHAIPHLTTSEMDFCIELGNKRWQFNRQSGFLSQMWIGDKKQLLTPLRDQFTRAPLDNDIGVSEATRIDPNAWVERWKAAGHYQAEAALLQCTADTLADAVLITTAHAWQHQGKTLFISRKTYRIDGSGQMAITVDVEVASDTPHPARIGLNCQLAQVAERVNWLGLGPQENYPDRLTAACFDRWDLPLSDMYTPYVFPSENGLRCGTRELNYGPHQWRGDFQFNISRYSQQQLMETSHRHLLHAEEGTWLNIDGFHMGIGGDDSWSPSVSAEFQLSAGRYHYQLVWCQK

Substance | % Cleavage [%]
HIV-1 protease D25A (99 residues, HXB2) expressed from pMono | 0
HIV-1 protease F99A (99 residues, HXB2) expressed from pMono | 0
HIV-1 protease I3A (99 residues, HXB2) expressed from pMono | 0
HIV-1 protease L97A (99 residues, HXB2) expressed from pMono | 0
HIV-1 protease N98A (99 residues, HXB2) expressed from pMono | 68
HIV-1 protease P1A (99 residues, HXB2) expressed from pMono | 92
HIV-1 protease Q2A (99 residues, HXB2) expressed from pMono | 96
HIV-1 protease T4A (99 residues, HXB2) expressed from pMono | 96
HIV-1 protease T96A (99 residues, HXB2) expressed from pMono | 14
